The series can be described thus: self-splicing fitness, log relative to wild type (ln ratio); higher = more splicing; Tetrahymena group I intron in knt gene, E. coli kanamycin selection, DiMSum; sequences stand for … in CUCUCU…GGAGGGAAAAGUUAUCAGGCAUGCACCUGGUAGCUAGUCUUUAAACCAAUAGAUUGCAUCGGUUUAAAAGGCAAGACCGUCAAAUUGCGGGAAAGGGGUCAACAGCCGUUCAGUACCAAGUCUCAGGGGAAACUUUGAGAUGGCCUUGCAAAGGGUAUGGUAAUAAGCUGACGGACAUGGUCCUAACCACGCAGCCAAGUCCUAAGUCAACAGAUCUUCUGUUGAUAUGGAUGCAGUUCACAGACUAAAUGUCGGUCGGGGAAGAUGUAUUCUUCUCAUAAGAUAUAGUCGGACCUCUCCUUAAUGGGAGCUAGCGGAUGAAGUGAUGCAACACUGGAGCCGCUGGGAACUAAUUUGUAUGCGAAAGUAUAUUGAUUAGUUUUGGAGUACUCGUGGUCG
A digest of the protocol: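 The eight P1ex-region nucleotides of an intron in the knt kanamycin-resistance gene on pET-22b(+) were all randomised and the library put into E. coli BL21(DE3). Six replicate transformations were grown overnight at 37°C or 30°C on LB agar with or without 25 μg/mL kanamycin, together with 100 μg/mL carbenicillin, 50 μM IPTG and 0.2% rhamnose. Colonies were pooled and amplicon-sequenced on an Illumina HiSeq 2500. Fitness from DiMSum is the error-weighted combination of wild-type-normalised replicate fold changes, kanamycin over none.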

± gives the uncertainty stated by the source.

As for UCAGAGCAAUAUUACGGUGU, the “self-splicing fitness (ln)” value runs as follows: (30 °C) -4.01 ± 0.3; (37 °C) -2.25 ± 0.18. For the sequence CGCUAGCAAUAUUACGUUAC, the “self-splicing fitness (ln)” value (30 °C) is -3.23 ± 0.31.

For the sequence GUUUAGCAAUAUUACGGAUG, the “self-splicing fitness (ln)” value reads like this: (30 °C) -3.5 ± 0.3; (37 °C) -1.57 ± 0.22. The matching figures for AUGUAGCAAUAUUACGUUGA: -3.43 ± 0.29 and -1.35 ± 0.22. With CACCAGCAAUAUUACGAAAA, the “self-splicing fitness (ln)” value (30 °C) was -3.1 ± 0.2 and the “self-splicing fitness (ln)” value (37 °C) is -2.33 ± 0.2. Consider ACUGAGCAAUAUUACGUUGU, for which the “self-splicing fitness (ln)” value (30 °C) was -3.71 ± 0.26 and the “self-splicing fitness (ln)” value (37 °C) was -1.53 ± 0.14.

As to CUAUAGCAAUAUUACGUCGU, for the setting “37 °C”, the “self-splicing fitness (ln)” value was -2.24 ± 0.34. With GCCCAGCAAUAUUACGGCAC, the “self-splicing fitness (ln)” value reads like this: (30 °C) -1.45 ± 0.067; (37 °C) -0.0437 ± 0.094. On to ACAAAGCAAUAUUACGACAU, for which the “self-splicing fitness (ln)” value (30 °C) was -0.488 ± 0.011 and the “self-splicing fitness (ln)” value (37 °C) amounted to 0.0402 ± 0.032. For GUUAAGCAAUAUUACGAGUA, the “self-splicing fitness (ln)” value runs as follows: (30 °C) -2.5 ± 0.12; (37 °C) -1.32 ± 0.095. The matching figures for ACUUAGCAAUAUUACGAAAA: -2.79 ± 0.26 and -2.01 ± 0.27.

GACCAGCAAUAUUACGUUAC: the “self-splicing fitness (ln)” value was -1.65 ± 0.052 (30 °C) and -0.38 ± 0.067 (37 °C). Turning to AGUGAGCAAUAUUACGGUCG, the “self-splicing fitness (ln)” value was -3.55 ± 0.24 (30 °C) and -1.97 ± 0.18 (37 °C). AACAAGCAAUAUUACGUCAC: the “self-splicing fitness (ln)” value (30 °C) was -3.77 ± 0.22 and the “self-splicing fitness (ln)” value (37 °C) is -2.29 ± 0.23. Turning to UCAAAGCAAUAUUACGACGG, the “self-splicing fitness (ln)” value is, setting by setting: (30 °C) -0.0455 ± 0.082; (37 °C) 0.125 ± 0.12.

Consider GCUGAGCAAUAUUACGGCGG, for which the “self-splicing fitness (ln)” value (30 °C) was -1.79 ± 0.22.

As for GCAAAGCAAUAUUACGGUGU, the “self-splicing fitness (ln)” value was -4.55 ± 0.29 (30 °C) and -2.71 ± 0.25 (37 °C). The matching figures for CGUAAGCAAUAUUACGGACA: -0.986 ± 0.099 and -1.18 ± 0.12. As for AGAUAGCAAUAUUACGCGGA, the “self-splicing fitness (ln)” value (30 °C) was -2.98 ± 0.13 and the “self-splicing fitness (ln)” value (37 °C) is -0.482 ± 0.093.

For CUGCAGCAAUAUUACGUGUU, the “self-splicing fitness (ln)” value was -4.86 ± 0.31 (30 °C) and -2.28 ± 0.19 (37 °C). The corresponding values for UCGCAGCAAUAUUACGCGCG are -3.58 ± 0.29 and -2.08 ± 0.27. The corresponding values for GAGCAGCAAUAUUACGGGCU are -3.92 ± 0.28 and -2.55 ± 0.34.

For the sequence GAGUAGCAAUAUUACGUUGC, the “self-splicing fitness (ln)” value is -3.27 ± 0.23 (30 °C) and -1.79 ± 0.27 (37 °C). The corresponding values for AAGUAGCAAUAUUACGAGCG are -0.709 ± 0.14 and -1.11 ± 0.19. The corresponding values for UCAGAGCAAUAUUACGUCUA are -3.04 ± 0.29 and -2.35 ± 0.3. The corresponding values for UAGGAGCAAUAUUACGCGGA are -3.57 ± 0.38 and -2.52 ± 0.26. On to AGGAAGCAAUAUUACGUGCU, for which the “self-splicing fitness (ln)” value is, setting by setting: (30 °C) -2.18 ± 0.17; (37 °C) -0.868 ± 0.16. UGUAAGCAAUAUUACGAUUU: the “self-splicing fitness (ln)” value by setting is: (30 °C) -1.82 ± 0.17; (37 °C) -1.24 ± 0.14.

UUCCAGCAAUAUUACGCAUC: the “self-splicing fitness (ln)” value reads like this: (30 °C) -3.6 ± 0.23; (37 °C) -2.2 ± 0.17. Turning to GAUUAGCAAUAUUACGUGUU, the “self-splicing fitness (ln)” value is -2.85 ± 0.22 (30 °C) and -1.66 ± 0.14 (37 °C).

For the sequence CUUCAGCAAUAUUACGGCAC, the “self-splicing fitness (ln)” value is -4.13 ± 0.33 (30 °C) and -0.568 ± 0.13 (37 °C).

Take UAAGAGCAAUAUUACGUCCG: for the setting “30 °C”, the “self-splicing fitness (ln)” value is -3.27 ± 0.41. With GAAUAGCAAUAUUACGCCCU, the “self-splicing fitness (ln)” value reads like this: (30 °C) -0.167 ± 0.19; (37 °C) 0.00214 ± 0.21. For the sequence AGGCAGCAAUAUUACGCUCA, the “self-splicing fitness (ln)” value is -0.172 ± 0.079 (30 °C) and 0.0289 ± 0.12 (37 °C).

For AGAAAGCAAUAUUACGUGAA, the “self-splicing fitness (ln)” value was -2.39 ± 0.13 (30 °C) and -1.96 ± 0.12 (37 °C). In the case of AUGCAGCAAUAUUACGUGAU, the “self-splicing fitness (ln)” value (30 °C) was -1.76 ± 0.067 and the “self-splicing fitness (ln)” value (37 °C) was -0.91 ± 0.08. The corresponding values for AUGUAGCAAUAUUACGGGAU are -1.9 ± 0.12 and -1.33 ± 0.2. The matching figures for AUAUAGCAAUAUUACGCUAU: -2.98 ± 0.27 and -0.715 ± 0.24.

As for ACCUAGCAAUAUUACGUAUA, the “self-splicing fitness (ln)” value is, setting by setting: (30 °C) -1.6 ± 0.1; (37 °C) -1.46 ± 0.12. The matching figures for UCACAGCAAUAUUACGUGCA: -0.403 ± 0.067 and 0.0083 ± 0.085.

Regarding AAUGAGCAAUAUUACGGCGA, the “self-splicing fitness (ln)” value is -2.77 ± 0.34 (30 °C) and -0.446 ± 0.19 (37 °C). Consider GAGCAGCAAUAUUACGGCCG, for which the “self-splicing fitness (ln)” value reads like this: (30 °C) -1.05 ± 0.17; (37 °C) -0.59 ± 0.27. In the case of CGCCAGCAAUAUUACGCCCA, the “self-splicing fitness (ln)” value is -1.42 ± 0.18 (30 °C) and -0.853 ± 0.19 (37 °C).

Turning to CACGAGCAAUAUUACGUUAC, the “self-splicing fitness (ln)” value (30 °C) was -4.19 ± 0.36 and the “self-splicing fitness (ln)” value (37 °C) is -1.25 ± 0.23.

In the case of UACUAGCAAUAUUACGUUAG, the “self-splicing fitness (ln)” value (30 °C) was -3.54 ± 0.19 and the “self-splicing fitness (ln)” value (37 °C) was -2.66 ± 0.23. Take CGCUAGCAAUAUUACGUGGG: the “self-splicing fitness (ln)” value reads like this: (30 °C) -3.6 ± 0.17; (37 °C) -2.74 ± 0.21. Take AGCGAGCAAUAUUACGACCG: the “self-splicing fitness (ln)” value is, setting by setting: (30 °C) -1.98 ± 0.23; (37 °C) -1.84 ± 0.32. The corresponding values for GUUUAGCAAUAUUACGGGUC are -3.6 ± 0.47 and -1.73 ± 0.2. Consider UGGCAGCAAUAUUACGAUGG, for which the “self-splicing fitness (ln)” value was -1.48 ± 0.17 (30 °C) and -1.67 ± 0.18 (37 °C). UCCGAGCAAUAUUACGAUUU: the “self-splicing fitness (ln)” value is -3.56 ± 0.25 (30 °C) and -2.49 ± 0.44 (37 °C). UUGAAGCAAUAUUACGAUAA: the “self-splicing fitness (ln)” value is, setting by setting: (30 °C) -0.132 ± 0.23; (37 °C) 0.686 ± 0.36. Take GUAGAGCAAUAUUACGGGUU: the “self-splicing fitness (ln)” value was -4.13 ± 0.3 (30 °C) and -2.15 ± 0.22 (37 °C).

AGACAGCAAUAUUACGGAAG: the “self-splicing fitness (ln)” value by setting is: (30 °C) -4.03 ± 0.3; (37 °C) -1.94 ± 0.18. Turning to GAUAAGCAAUAUUACGUCAG, the “self-splicing fitness (ln)” value was -4.56 ± 0.32 (30 °C) and -2.5 ± 0.23 (37 °C). The corresponding values for CGGCAGCAAUAUUACGUAGC are -4.16 ± 0.36 and -3.03 ± 0.24. Regarding AUCCAGCAAUAUUACGGCGC, the “self-splicing fitness (ln)” value is -0.203 ± 0.1 (30 °C) and -0.114 ± 0.14 (37 °C). The matching figures for ACAAAGCAAUAUUACGUCGU: -2.74 ± 0.093 and -2.05 ± 0.12. As to CGUGAGCAAUAUUACGCUUU, the “self-splicing fitness (ln)” value is -2.54 ± 0.35 (30 °C) and -1.98 ± 0.28 (37 °C). Turning to GCGGAGCAAUAUUACGAACA, the “self-splicing fitness (ln)” value is -2.71 ± 0.45 (30 °C) and -2.78 ± 0.43 (37 °C). Regarding AAGCAGCAAUAUUACGUUAC, the “self-splicing fitness (ln)” value is -3.42 ± 0.29 (30 °C) and -1.35 ± 0.18 (37 °C). The corresponding values for CCAAAGCAAUAUUACGAUAA are -3 ± 0.17 and -0.828 ± 0.18. The matching figures for CAUUAGCAAUAUUACGAUUC: -2.1 ± 0.18 and -0.901 ± 0.17. As to UAGAAGCAAUAUUACGCAUC, the “self-splicing fitness (ln)” value is, setting by setting: (30 °C) -3 ± 0.23; (37 °C) -3.37 ± 0.31. UCGCAGCAAUAUUACGAGAC: the “self-splicing fitness (ln)” value is -3.18 ± 0.35 (30 °C) and -1.6 ± 0.4 (37 °C). The corresponding values for UAGAAGCAAUAUUACGUAAA are -2.04 ± 0.14 and -1.33 ± 0.14. Take CGAUAGCAAUAUUACGAUCC: the “self-splicing fitness (ln)” value (30 °C) is -0.714 ± 0.13 and the “self-splicing fitness (ln)” value (37 °C) came out at 0.104 ± 0.19. The corresponding values for CAACAGCAAUAUUACGAUAU are -4 ± 0.15 and -2.2 ± 0.13. The corresponding values for AAAUAGCAAUAUUACGCAGC are -3.27 ± 0.33 and -0.974 ± 0.25. The matching figures for GAAAAGCAAUAUUACGCAGA: -2.53 ± 0.18 and -2.2 ± 0.13. For the sequence CGCUAGCAAUAUUACGAGUA, the “self-splicing fitness (ln)” value reads like this: (30 °C) -0.852 ± 0.11; (37 °C) -0.525 ± 0.11. Take CGACAGCAAUAUUACGACAU: the “self-splicing fitness (ln)” value by setting is: (30 °C) -2.444 ± 0.014; (37 °C) -1.33 ± 0.033. The corresponding values for UACCAGCAAUAUUACGAUCG are -0.0679 ± 0.046 and -0.31 ± 0.06. The matching figures for ACGAAGCAAUAUUACGCGCC: -0.967 ± 0.1 and 0.356 ± 0.14. The matching figures for GGCCAGCAAUAUUACGUAAC: -1.22 ± 0.082 and -1.19 ± 0.073.

As for ACGUAGCAAUAUUACGUUUU, the “self-splicing fitness (ln)” value (30 °C) was -2.63 ± 0.12 and the “self-splicing fitness (ln)” value (37 °C) was -1.15 ± 0.12. GAACAGCAAUAUUACGUGGA: the “self-splicing fitness (ln)” value runs as follows: (30 °C) -2.32 ± 0.1; (37 °C) -1.95 ± 0.094.

The values are drawn from the supplement of paper PMC7877785.
